Data as given in patent US20230192767A1 (MEDIKINE, published 2023).

B1: SEQ ID NO 456 (peptide)
peptide: LSCSIAQVGELCDL
B2: SEQ ID NO 568 (peptide)
peptide: GRFYPCNMAQVGELCELMEY
B3: SEQ ID NO 534 (peptide)
peptide: YACRFAHVGDLCDL
B4: SEQ ID NO 428 (peptide)
peptide: QVLKNCRLAHIGELCYLSER
B5: SEQ ID NO 531 (peptide)
peptide: WQCRWAQVGELCDLSSENDN
B6: IL-2Rβ ligand SEQ ID NO: 58 (peptide)
peptide: YDCRIAQVGELCDL
notes: also called Peptide E
B7: SEQ ID NO 566 (peptide)
peptide: YLCQVAGVGELCDLEESGRN
B8: SEQ ID NO 481 (peptide)
peptide: QDCRMAQVGHLCDL
B9: SEQ ID NO 430 (peptide)
peptide: KSCARAQVGELCYIEGAEDA
B10: IL-2Rβ ligand SEQ ID NO: 1084 (peptide)
peptide: CGMAIGDLCMWT
B11: SEQ ID NO 536 (peptide)
peptide: YDCQKAQLGELCDLRYSVRD
B12: IL-2Rβ ligand SEQ ID NO: 170 (peptide)
peptide: QICDVGQWWPDCQV
B13: SEQ ID NO 507 (peptide)
peptide: VTGWTYRDCRIANVGDLCEL
B14: SEQ ID NO 403 (peptide)
peptide: EDCWMAQVGQLCDL
B15: SEQ ID NO 548 (peptide)
peptide: YDCRMAKVGDLCDLWSVWGR
B16: SEQ ID NO 526 (peptide)
peptide: VLCRIAQVGQLCEL
B17: SEQ ID NO 499 (peptide)
peptide: WPMSQFQKCATAQVGELCEL
B18: SEQ ID NO 471 (peptide)
peptide: EYFSHDQDCQTAQLGELCKM
B19: SEQ ID NO 429 (peptide)
peptide: RTMKQCSIAQVGELCDLAVT
B20: SEQ ID NO 551 (peptide)
peptide: TWAYDCRTAEVGELCDLPVQ
B21: SEQ ID NO 485 (peptide)
peptide: AVKRFRQDCRTAPVGTLCDL
B22: SEQ ID NO 477 (peptide)
peptide: QDCRLAHLGDLCDLWSPRQN
B23: SEQ ID NO 515 (peptide)
peptide: SDCSVANVGDLCNL
B24: SEQ ID NO 500 (peptide)
peptide: FIAQKCRLAKVGELCDLGYS
B25: SEQ ID NO 425 (peptide)
peptide: KDCRTALIGDLCDLTLHLGG
B26: SEQ ID NO 476 (peptide)
peptide: QDCRKANVGELCYLDWDSPT
B27: SEQ ID NO 443 (peptide)
peptide: LECRLARLGDLCYL
B28: SEQ ID NO 524 (peptide)
peptide: VDCWIAQLGELCELEDGRRQ
B29: SEQ ID NO 436 (peptide)
peptide: LDCRIAPLGELCDMFISAFN
B30: IL-2Rβ ligand SEQ ID NO: 83 (peptide)
peptide: CCYQAMVGDLCDFC
B31: SEQ ID NO 495 (peptide)
peptide: SVWQECSMAQVGDLCELHIG
B32: SEQ ID NO 454 (peptide)
peptide: LRCRMAQVGDLCDLDRAWDW
B33: IL-2Rβ ligand SEQ ID NO: 169 (peptide)
peptide: NMCLVGDYWPSCQI
B34: SEQ ID NO 448 (peptide)
peptide: LLCRMAHLGELCDL
B35: SEQ ID NO 460 (peptide)
peptide: SWVNNCRMAQVGELCDLPNW
B36: SEQ ID NO 463 (peptide)
peptide: GLNPMIPGCQMAQVGELCEL
B37: SEQ ID NO 480 (peptide)
peptide: QDCRMAHLGELCTL
B38: SEQ ID NO 570 (peptide)
peptide: LLSYPCRMAQVGELCDIAMK
B39: SEQ ID NO 535 (peptide)
peptide: EQTRSGYACRTAQVGELCDL
B40: SEQ ID NO 569 (peptide)
peptide: YPCRMADVGELCDL
B41: SEQ ID NO 416 (peptide)
peptide: HDCWFAKLGELCDLRQMSFV
B42: SEQ ID NO 491 (peptide)
peptide: WGRQECRFANVGDLCDVSNY
B43: SEQ ID NO 470 (peptide)
peptide: DEMQDCQIAQVGELCDLGLE
B44: SEQ ID NO 503 (peptide)
peptide: QNCSTAKVGELCDLLMEGTE
B45: SEQ ID NO 402 (peptide)
peptide: GVKDGWEDCGIAQVGELCVL
B46: SEQ ID NO 418 (peptide)
peptide: HECRFAQVGELCDL
B47: SEQ ID NO 501 (peptide)
peptide: NLRQNCRDAPVGELCDLEWI
B48: SEQ ID NO 494 (peptide)
peptide: VLEVLRQECRMAQVGELCDL
B49: SEQ ID NO 468 (peptide)
peptide: LEFMWIQDCGMAEVGELCEL
B50: SEQ ID NO 421 (peptide)
peptide: KACSIAQVGDLCEIYGFDDA
B51: IL-2Rβ ligand SEQ ID NO: 1043 (peptide)
peptide: RWGDVGDLLMPL
B52: SEQ ID NO 461 (peptide)
peptide: TYAKLVNYCWTAQLGELCYL
B53: SEQ ID NO 506 (peptide)
peptide: GYEPIMRACRNAQVGDLCDL
B54: SEQ ID NO 423 (peptide)
peptide: KDCRLAYVGELCDLNRSDTI
B55: SEQ ID NO 419 (peptide)
peptide: HQCRFAHVGELCDLFVFESY
B56: SEQ ID NO 505 (peptide)
peptide: QPCRNAHLGQLCDLQTWTNS
B57: SEQ ID NO 427 (peptide)
peptide: QDGAKLKECRVAQVGELCEF
B58: SEQ ID NO 411 (peptide)
peptide: FECWIAQVGELCDL

What was measured:
[1] = target: T1, human IL-2Rβ (CD122 protein, Fc Tag) (27-239) (human, UniProt P14784 27-239); experiment: pH-dependent ELISA (Examples 9-12)
T1 construct: range 27-239; Bought protein; also called IL-2Rβ subunit; IL-2Rβ-Fc; not shown: Fc Tag of the bought protein (ACRObiosystems ILB-H5253)
T1 sequence (looked up): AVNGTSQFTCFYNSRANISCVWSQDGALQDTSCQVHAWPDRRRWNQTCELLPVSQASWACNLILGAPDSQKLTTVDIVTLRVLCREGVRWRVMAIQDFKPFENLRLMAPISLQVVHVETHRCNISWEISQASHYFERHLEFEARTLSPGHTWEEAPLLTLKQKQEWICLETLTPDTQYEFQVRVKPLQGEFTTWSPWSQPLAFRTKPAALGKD
Procedure: For each peptide to be assayed, 16 ELISA plate wells were coated with neutravidin ([…] in PBS pH7.2) at 50 μL/well. The coated wells were incubated at 25° C. for at least 1 h.
The neutravidin was removed from each well. Three-hundred (300) μL of blocking buffer (1×PBS pH 7.2, 1% BSA) was added to each well of the neutravidin-coated plates. All plates were covered and maintained at 25° C. for 1 h or overnight at 4° C.
The biotinylated peptides were diluted to 1 μM in PBT pH 7.2 buffer and 50 uL was added to the appropriate 16 wells (8 for each binding pH). The plates were incubated at 25° C. for at least 1 h.

[2] = target: T1, human IL-2Rβ (CD122 protein, Fc Tag) …; experiment: IC50, method not told in the paragraph

Binder	decrease in binding at pH 7.5 compared to pH 6.0 [1]	IC50 [2]
B1	> 15%	–
B2	> 15%	–
B3	> 15%	–
B4	> 15%	–
B5	> 15%	–
B6	–	< 10 µM
B7	> 15%	–
B8	> 15%	–
B9	> 15%	–
B10	–	< 10 µM
B11	> 15%	–
B12	–	< 10 µM
B13	> 15%	–
B14	> 15%	–
B15	> 15%	–
B16	> 15%	–
B17	> 15%	–
B18	> 15%	–
B19	> 15%	–
B20	> 15%	–

Binder	decrease in binding at pH 7.5 compared to pH 6.0 [1]	IC50 [2]
B21	> 15%	–
B22	> 15%	–
B23	> 15%	–
B24	> 15%	–
B25	> 15%	–
B26	> 15%	–
B27	> 15%	–
B28	> 15%	–
B29	> 15%	–
B30	–	< 10 µM
B31	> 15%	–
B32	> 15%	–
B33	–	< 10 µM
B34	> 15%	–
B35	> 15%	–
B36	> 15%	–
B37	> 50%	–
B38	> 15%	–
B39	> 15%	–
B40	> 15%	–

Binder	decrease in binding at pH 7.5 compared to pH 6.0 [1]	IC50 [2]
B41	> 15%	–
B42	> 15%	–
B43	> 15%	–
B44	> 15%	–
B45	> 15%	–
B46	> 15%	–
B47	> 15%	–
B48	> 15%	–
B49	> 15%	–
B50	> 15%	–
B51	–	< 10 µM
B52	> 15%	–
B53	> 15%	–
B54	> 15%	–
B55	> 15%	–
B56	> 15%	–
B57	> 15%	–
B58	> 15%	–
